Laboratory results from patent publication US20050221459A1 (DUKE UNIVERSITY, published 2005).
Ends that are not written are not given here. * marks the point of attachment. Geranylgeranyl = CC(C)=CCC/C(C)=C/CC/C(C)=C/CC/C(C)=C/C*; Farnesyl = CC(C)=CCC/C(C)=C/CC/C(C)=C/C*

Tests used:
[1] = target: T1, Rat protein geranylgeranyl transferase type I (GGTase-I) (rat, UniProt Q04631 1-377; P53610 1-377); experiment: X-ray crystal structure, ternary complex with 3'azaGGPP
Method: Rat GGTase-I was expressed and purified as previously described herein (see also SAtrickland et al., 1999). […] GGTase-I product co-crystals were first transferred stepwise from their mother liquor (1.3 M NH₄SO₄, 175 mM Na₃-citrate, 100 mM MES pH 6.3, and 20 mM DTT) to cyro-solvent (30% (w:v) sucrose, 900 mM Na₃-citrate, 100 mM MES pH 6.3, 10 mM TCEP, and 1 μM ZnCl₂) supplemented with 0.2 mM 3′azaGGPP and 0.2 mM of the appropriate Ca₁a₂X peptide (Sigma-Genosys, >95% purity). All crystals were soaked for a week to allow for ternary complex formation and flash-cooled in liquid nitrogen.
(§1) Diffraction data were collected at 100 K with an R-Axis IV image plate system (Molecular Structure Corp., The Woodlands, Tex., United States of America) mounted on a Rigaku RU-H3R rotating anode generator with double mirror optics (Molecular Structure Corp.). Diffraction data were also collected at the BioCARS and SER-CAT beamlines at the Advanced Photon Source, Argonne National Labs and at the X25 beamline at the National Synchrotron Light Source, Brookhaven National Labs (BNLNSLS).

[2] = target: T2, Rat protein farnesyltransferase (rFTase) (rat, UniProt Q04631 1-377; Q02293 1-437); experiment: co-crystal of the product complex
[3] = target: Human protein farnesyltransferase (hFTase) (human, UniProt P49354 1-379; P49356 1-437); experiment: X-ray crystal structure, ternary complex with FPT-II
From the text: (§2) The FTase:FPTII: Ca₁a₂X complexes were transferred to cryoprotection solutions and flash-cooled in liquid nitrogen.
as §1
(§3) The structures were determined by rigid body refinement using either rat FTase (Brookhaven Protein Data Bank code 1 D8D) or human FTase (Brookhaven Protein Data Bank code 1JCQ) as the initial model with ligands removed. […] After rigid body refinement, FPT-II and the Ca₁a₂X peptides were fit into σA weighted Fₒ-Fc maps and the complexes refined against all data with |F|≧0 by iterative cycles of simulated annealing, minimization, individual B-factor refinement, and model building. Refinements were carried out using CNS v1.0 (Brünger et al., 1998) and models built using O (Jones et al., 1991).

[4] = target: T1, Rat protein geranylgeranyl transferase …; experiment: X-ray crystal structure, ternary Complex 2 with 3'AzaGGPP
Method: (§4) GGTase-I crystals were grown at 17° C. in hanging drops using equal volumes of protein and reservoir solution (1.3 M NH₄SO₄, 175 mM Na₃ citrate pH 6.5, 20 mM DTT and 100 mM MES, pH 6.3). Micro-seeds were added after equilibration to control nucleation. Seeding solution was produced by crushing GGTase-I crystals in stabilizing solution (1.5 M NH₄SO₄, 175 mM Na₃ citrate pH 6.5, 5 mM ZnCl₂, 20 mM DTT and 100 mM MES, pH 6.3). […] For data collection crystals were transferred stepwise into cryosolvent (30% (w:v) sucrose, 1.8 M NH₄SO₄, 5 mM ZnCl₂, 10 mM TCEP, and 100 mM MES, pH 6.3) before flash-freezing in liquid nitrogen. Derivative crystals were soaked 18 hours in cryosolvent containing 1 mM Di-m-iodobis (ethylenediamine) diplatinum (II) nitrate (PIP) and no TCEP.

[5] = target: T1, Rat protein geranylgeranyl transferase …; experiment: X-ray crystal structure, product Complex 3
Method: as §4

[6] = target: T2, Rat protein farnesyltransferase (rFTase); experiment: X-ray crystal structure, FTase complexed with FPT-II and peptide (FIG. 16)
From the text: as §2, §1, §3

[7] = target: T2, Rat protein farnesyltransferase (rFTase); experiment: X-ray crystal structure, ternary complex with FPT-II
From the text: as §2, §1, §3

B1: RhoB peptide GCINCCKVL (SEQ ID NO: 11) (peptide)
peptide: GCINCCKVL
notes: Synthetic, Sigma-Genosys, >95% purity
B1: binds [1].

B2: farnesylated-KKKSKTKCVIM product (SEQ ID NO: 8) (peptide)
peptide: KKKSKTKC(Farnesyl)VIM
notes: Product co-crystal with FTase, used as starting material for the TC21 soak; also called farnesylated product
B2: binds [2].

B3: Rap2a peptide DDPTASACNIQ (SEQ ID NO: 10) (peptide)
peptide: DDPTASACNIQ
notes: Synthetic, Sigma-Genosys, >95% purity; also called Rap2a (CNIQ)
B3: binds [3].

B4: heterotrimeric G protein γ2 subunit peptide FREKKFFCAIL (SEQ ID NO: 13) (peptide)
peptide: FREKKFFCAIL
notes: Synthetic, Sigma-Genosys, >95% purity; also called y2
B4: binds [1].

B5: RhoB peptide KKSKTKCKVL (SEQ ID NO: 12) (peptide)
peptide: KKSKTKCKVL
notes: as for B1
B5: binds [1].

B6: Ca1a2X peptide KKKSKTKCVIL (SEQ ID NO: 1) (peptide)
peptide: KKKSKTKCVIL
notes: Synthetic, Sigma-Genosys, >95% purity; also called Rap2b chimera peptide; CVIL peptide
B6: binds [4].

B7: K-Ras4B peptide KKKSKTKCVIM (SEQ ID NO: 8) (peptide)
peptide: KKKSKTKCVIM
notes: Synthetic, Sigma-Genosys, >95% purity; also called K-Ras4B (CVIM)
B7: binds [1].

B8: Cdc42 splice isoform 2 peptide RRCVLL (SEQ ID NO: 14) (peptide)
peptide: RRCVLL
notes: Synthetic, Sigma-Genosys, >95% purity; also called Cdc42-II
B8: binds [1].

B9: geranylgeranylated-KKKSKTKCVIL product (SEQ ID NO: 1) (peptide)
peptide: KKKSKTKC(Geranylgeranyl)VIL
notes: also called prenyl-peptide product; prenylated product
B9: binds [5].

B10: H-Ras peptide GCVLS (SEQ ID NO: 6) (peptide)
peptide: GCVLS
notes: Synthetic, Sigma-Genosys, >95% purity; also called H-Ras (CVLS)
B10: binds [6].

B11: TC21 peptide KKSKTKCVIF (SEQ ID NO: 9) (peptide)
peptide: KKSKTKCVIF
notes: Synthetic, Sigma-Genosys, >95% purity; also called TC21 (CVIF)
B11: binds [1]; binds [7].
